{"source": "the nanobody polyreactivity screen of Harvey et al. (2022)"}
{"assay": "yeast display, Sf9 membrane polyspecificity reagent, FACS + sequencing; frameworks hold sequencing errors", "method_in_brief": "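In a synthetic yeast display library (Saccharomyces cerevisiae BJ5465), nanobody expression was induced with galactose for 36–48 hours. FACS gates were set low and high (top ~1%) using anti-HA fluorescence for expression and streptavidin fluorescence for binding of the Sf9 membrane reagent. Each polyreactivity label is drawn from the gate of origin.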"}
{"sequence": "QVQLVESGGGLVQAGGSLRLSCAASGSTFGNYAMGWYRQAPGKEMELVAAISTSGDSTYYADSVKGRFTISRDNAKYTVYLQMNSLKPEDSAVYYCKARGIATGNRHEYWGQGTQVTVSS", "polyreactivity (PSR sort gate)": "low polyreactivity"}
{"sequence": "QVQLVESGGGLVQAGGSLRLSCAASGSTFGNYAMGWYRQAPGKERELVAAIRSRGGRTYYADSVKGRFTISRDYAKNTVYLQMNSLKPVDTAVYYCARDSRTGYYYWGQGTQVTVSS", "polyreactivity (PSR sort gate)": "high polyreactivity"}
{"sequence": "QVQLVESGGGLVQAGGSLRLSCAASGSTFGNYAMGWYRQAPGKERELVAAISVGDGSTYYADSVKGRFTISRDNAKNTVYLQMNSLKPEDTAFYYCAADFVYPSWHYDYWGQGTQVTVSS", "polyreactivity (PSR sort gate)": "high polyreactivity"}
{"sequence": "QVQLVESGGGLVQAGGSLRLSCAASGSTFGNYAMGWYRQAPGKERELVATISRSGGSTYYADSVQGRFTISRDIAKNTVNLQMNSLKPEDTAVYYCNRRYYTRKPDYNSWGQGTQVTVSS", "polyreactivity (PSR sort gate)": "high polyreactivity"}
{"sequence": "QVQLVESGGGLVQAGGSLRLSCAASGSTFGPNAMGWYRQAPGKERELVAAIRSNGGRTYYADSVKGRFTISRDNAKITVYLQMNSLKPEDSAVYYCADPHYPYDTPYGYWGQGTQVTVSS", "polyreactivity (PSR sort gate)": "low polyreactivity"}
{"sequence": "QVQLVESGGGLVQAGGSLRLSCAASGSTFGPYAMGWYRQAPGKERELVAAISSRGARTYYADSVKGRFTISRDNAKNTVYLQMNSLKPEDTAVYYCANTYHGTAYDYWGQGTQVTVSS", "polyreactivity (PSR sort gate)": "high polyreactivity"}
{"sequence": "QVQLVESGGGLVQAGGSLRLSCAASGSTFGPYAMGWYRQAPGKERELVADISGGSTNYADSVKGRFTISRDNAKNTVYLQMNSLKPEDTAVYYGAADSYPAYLGFVGFDYWGQGTQVTVSS", "polyreactivity (PSR sort gate)": "low polyreactivity"}
{"sequence": "QVQLVESGGGLVQAGGSLRLSCAASGSTFGPYAMGWYRQAPGKERELVAVITTSGSTNYADSVKGRFTISRDNAKNTVYLQMNSLKPEDTAVSYCAARYRYYGTNRYYYWGQGTQVTVSS", "polyreactivity (PSR sort gate)": "high polyreactivity"}
{"sequence": "QVQLVESGGGLVQAGGSLRLSCAASGSTFGPYTMGWYRQAPGKERELVATISSGGSTYYADSVKGRFTISRDNAKNTVYLQMNSLKPEDTAVYYCARDSYWEMDYWGQGTQVTVSS", "polyreactivity (PSR sort gate)": "low polyreactivity"}
{"sequence": "QVQLVESGGGLVQAGGSLRLSCAASGSTFGQNAMGWYRQAPGKERELVAAITRRGVSTYYADSVKGRFTISRDNAKNTVYLQMNSLKPEDTAVYYCAKRYHPNSPYDYWGQGTQVTVSS", "polyreactivity (PSR sort gate)": "low polyreactivity"}
{"sequence": "QVQLVESGGGLVQAGGSLRLSCAASGSTFGQYVMGWYRQAPGKERELVAAISSADSTNYADSVKGRFTISRDNAKNTVYLQMNSLKPEDTAVYYCAAARRPTYWPVYPYFGYEYWGQGTQVTVSS", "polyreactivity (PSR sort gate)": "low polyreactivity"}
{"sequence": "QVQLVESGGGLVQAGGSLRLSCAASGSTFGRNALGWYRQAPGKERELVASISWGGGSTYYADSVKGRFTISRDNSKNTVYLQMNSLKTEDTAVYYCNARRFLWSQLSGSFSYDYWGQGTQVTVSS", "polyreactivity (PSR sort gate)": "high polyreactivity"}
{"sequence": "QVQLVESGGGLVQAGGSLRLSCAASGSTFGRNAMGWYRQAPGKERELVAAINWSDGSTHYADSVKGRFTISRDNAKNTVYLQMNSLKPEDTAVYYCGADAWSWPVDYNYWGQGTQVTVSS", "polyreactivity (PSR sort gate)": "low polyreactivity"}
{"sequence": "QVQLVESGGGLVQAGGSLRLSCAASGSTFGRNTMGWYRQAPGKERELVAAITSCDTTTYADSVKGRFTISLDNAKNTVYIQMNSLKPEDTAVYYCAVDPVRGLDYSWMDYWGQGTQVTVSS", "polyreactivity (PSR sort gate)": "low polyreactivity"}
{"sequence": "QVQLVESGGGLVQAGGSLRLSCAASGSTFGRYAMGWYRQAPGKERELVAAIDWSGGSTYYADSVKGRFTISRDNAKNTVYLQMNSLKPEDTAVYYCAAEAYSQYRTPGFDYYYWGQGTQVTVSS", "polyreactivity (PSR sort gate)": "high polyreactivity"}
{"sequence": "QVQLVESGGGLVQAGGSLRLSCAASGSTFGRYAMGWYRQAPGKERELVAAISKSGGSTYYADSVKGRFTISRDNEKNTVYLQMNSLNPEDTAVYYCAATTTRYSYEYWGQGTQVTVSS", "polyreactivity (PSR sort gate)": "low polyreactivity"}
{"sequence": "QVQLVESGGGLVQAGGSLRLSCAASGSTFGRYAMGWYRQAPGKERELVAAITRSGGRTYYADSVKGRFTISRDNAKNTVYLQLNSLKPEDTAVYYCAAVGNLYYTSHWQYDYWGQGTQVTVSS", "polyreactivity (PSR sort gate)": "high polyreactivity"}
{"sequence": "QVQLVESGGGLVQAGGSLRLSCAASGSTFGSNAMGWYRQAPGKEREWVAAISWTGGSTYYADSVKGRFTISRDKAKNPVYVHMNSLKPEETAVYYCNDYGYGYPLYRYDYWGQGTQVTVSS", "polyreactivity (PSR sort gate)": "low polyreactivity"}
{"sequence": "QVQLVESGGGLVQAGGSLRLSCAASGSTFGSNAMGWYRQAPGKESELVAAIRWSGGSTYYADSVKGRFTISRDNAKNTVYLQMNSLKPEDTAVYYCNAVYGRQYRGYNYKYYYWGQGTQVTVSS", "polyreactivity (PSR sort gate)": "high polyreactivity"}
{"sequence": "QVQLVESGGGLVQAGGSLRLSCAASGSTFGSYAMGWYRHAPGKERELVAAINGGSSTNYADSVKGRFTISRDNAKNTVYLQMNSLKPEDTAVYYCNATETHRLYDSWGQGTQVTVSS", "polyreactivity (PSR sort gate)": "low polyreactivity"}
{"sequence": "QVQLVESGGGLVQAGGSLRLSCAASGSTFGSYAMGWYRQAPGKERELVAAISGRGGRTSYADSVKGRFTISRDNAKNTVYLQMNSLKPQDTAVYYCAAKRGGLGVTAASLYDYYFWGQGTQVTVSS", "polyreactivity (PSR sort gate)": "high polyreactivity"}
{"sequence": "QVQLVESGGGLVQAGGSLRLSCAASGSTFGSYAMGWYRQAPGKERELVAAITASGGSTYYADSVKGRFTISRDNGKNTVYLQMKSLKPEDTAVYYCAADTTYIPLSIEYDYWGQGTQVTVSS", "polyreactivity (PSR sort gate)": "low polyreactivity"}
{"sequence": "QVQLVESGGGLVQAGGSLRLSCAASGSTFGSYAMGWYRQAPGKERELVAAITTSGSSTYYADSVKGRFTISRDNAKNTVYLQMNSLKPEDTAVYYCNARPRRLSYSSYNYWGQGTQVTVSS", "polyreactivity (PSR sort gate)": "high polyreactivity"}
{"sequence": "QVQLVESGGGLVQAGGSLRLSCAASGSTFGTYAMGWYRQAPGKERELVAAITRSGGSTYYADSVKGRFTISRDNAKNTVYLQKNSLKPEDTAVYYCAKYVFSYPQSYAYYYWGHGTQVTVSS", "polyreactivity (PSR sort gate)": "high polyreactivity"}
{"sequence": "QVQLVESGGGLVQAGGSLRLSCAASGSTFGTYAMGWYRQAPGKERELVAAITRSGGSTYYADSVKGRFTISRDNAKNTVYLQMNSLKPEDTAVYYCAAVSKGYYYWGQGTQVTVSS", "polyreactivity (PSR sort gate)": "high polyreactivity"}
{"sequence": "QVQLVESGGGLVQAGGSLRLSCAASGSTFGTYAMGWYRQAPGKERELVATITRRGGRTYYADSVKGRFTISRDNAKNTVYLQMNSLKPEDTAVYYCNAVVRQQGAYDYWGQGTQVTVSS", "polyreactivity (PSR sort gate)": "high polyreactivity"}
{"sequence": "QVQLVESGGGLVQAGGSLRLSCAASGSTFGTYVMGWYRQAPGKERELVAAITYSGGSTYYADSVTGRFTISRDNAKNTVYLQMNSLKPEDTAVYYCNADVWSYWYKFDYWGQGTQVTVSS", "polyreactivity (PSR sort gate)": "high polyreactivity"}
{"sequence": "QVQLVESGGGLVQAGGSLRLSCAASGSTFGVNAMGWYRQAPGKERELVAAISWSGGSTYYADSVKGRFTISRDNAKNTVYLQMNSLKPEDTAVYYCAADFDYGIWGRYEYWGQGTQVTVSS", "polyreactivity (PSR sort gate)": "high polyreactivity"}
{"sequence": "QVQLVESGGGLVQAGGSLRLSCAASGSTFGVNAMVWYRQAPGKERELVAGISVDDSTTYYADSVKGRFTISRDNAKNTVYLQMNSLKPEDTAVYYCAAEREKTLYYLSRFDYWGQGTQVTVSS", "polyreactivity (PSR sort gate)": "low polyreactivity"}
{"sequence": "QVQLVESGGGLVQAGGSLRLSCAASGSTFGVNVMGWYRQAPGKERELVAAISRSGGRTYYADSVKGRFTISRDNAKNTVYLQMNSLKPEDTAVYYCNTRGYDYWGQGTQVTVSS", "polyreactivity (PSR sort gate)": "high polyreactivity"}
{"sequence": "QVQLVESGGGLVQAGGSLRLSCAASGSTFGVYAMGWYRQAPGKERELVAAISWSSGSTYYADSVKGRFTISRDNAKNTVYLQLNSLKPEDTAVYYCNKDVYGYYRTGPRGYDYWGQGTQVTVSS", "polyreactivity (PSR sort gate)": "high polyreactivity"}
{"sequence": "QVQLVESGGGLVQAGGSLRLSCAASGSTFGVYTMGWYIQAPGKERELVAAITKSGGSTYYADSVKGRFTISRDNAKNTVYLQMNSLKPEDTAVYYCNTDYGRYLYYRYGYWGQGTQVTVSS", "polyreactivity (PSR sort gate)": "low polyreactivity"}
{"sequence": "QVQLVESGGGLVQAGGSLRLSCAASGSTFGWNAMGRYRQAPGKERELVAAISSSGGSTNYADSVKGRFTISRDNAKNTVYLQMTSLKPEDTAVYYCAKARRPGYGYGYWGQGTQLTVSS", "polyreactivity (PSR sort gate)": "low polyreactivity"}
{"sequence": "QVQLVESGGGLVQAGGSLRLSCAASGSTFGWYAMGWYRQAPGKERELVAAISYIGGSTYADSVKGRFTISRDNAKNTVYLQMKSLKPEDTAVYYCNAVVYGKSYGSRIYDYWGQGTQVTVSS", "polyreactivity (PSR sort gate)": "high polyreactivity"}
{"sequence": "QVQLVESGGGLVQAGGSLRLSCAASGSTFGWYAMGWYRQAPGKERELVAAITSVGSTYYADYVKGRFTISRDNAKNTVYLQMNSLKPEDTAVYYCANRFGYGWAWFGYWGQGTQVTVSS", "polyreactivity (PSR sort gate)": "low polyreactivity"}
{"sequence": "QVQLVESGGGLVQAGGSLRLSCAASGSTFGWYAMVWYRQAPGKERELVAAIRNNDGRTYYADSVKGRFTISRDNAKNTVYLQMNSLKPEDTAVYYCNADYRSHYLYDYWGQGTQVTVSS", "polyreactivity (PSR sort gate)": "low polyreactivity"}
{"sequence": "QVQLVESGGGLVQAGGSLRLSCAASGSTFGYAMGWYRQAPGKERELVAAITSTGGSTYYADSVKGRFTISRDNAKNTVYLQKNSLKPEDTAVYDCAADAYWIRSRFLYRMRSNSWGQGTQVTVSS", "polyreactivity (PSR sort gate)": "high polyreactivity"}
{"sequence": "QVQLVESGGGLVQAGGSLRLSCAASGSTFGYNAMGCYRQAPGKERELVAAISRSGGRTYYADSVKGRFTISRDNAKNTVYLQMNSLIPEDTAVYYCATYYTNKVPARYYWGQGTQVTVSS", "polyreactivity (PSR sort gate)": "high polyreactivity"}
{"sequence": "QVQLVESGGGLVQAGGSLRLSCAASGSTFGYNAMGGYRQAPGKERELVAAITWTGASTYYADSVKGRFTISRDNAKNTVYLQMNSLKPEDTAVYYCNLVGYQSMNYWGQGTQVTVSS", "polyreactivity (PSR sort gate)": "low polyreactivity"}
{"sequence": "QVQLVESGGGLVQAGGSLRLSCAASGSTFGYNAMGWYRQAPGKERELVAAISRSGGRTYYADSVKGRFTISRDNAKNTVYLQMNSLKPEDTAVYFCATYYTNKVPARYYWGQGTQVTVSS", "polyreactivity (PSR sort gate)": "high polyreactivity"}
{"sequence": "QVQLVESGGGLVQAGGSLRLSCAASGSTFGYNTMGWYRQAPGKERELVASITGRGGSTYYADSVKGRFTSSRDNAKNTVYLQMNSLKPEDTAVYYCAAAWKAYRRYGYWGQGTQVTVSS", "polyreactivity (PSR sort gate)": "high polyreactivity"}
{"sequence": "QVQLVESGGGLVQAGGSLRLSCAASGSTFGYYAMGWYRHAHGKERELVAAITGSVDSTYYADSVKGRFTISRDNAKNTVYLQMNSLKPEDTAVYYCAADTYSTYWGQGTQVTVSS", "polyreactivity (PSR sort gate)": "low polyreactivity"}
{"sequence": "QVQLVESGGGLVQAGGSLRLSCAASGSTFGYYAMGWYRHAPGKERELVAAISWRGGSTYYADSVKGRYTISRDNAKNTVYLQMISLKPEDTAVYYCAAPVGNYGSFDYWGQGTQVTVSS", "polyreactivity (PSR sort gate)": "low polyreactivity"}
